From the supplement of paper PMC10567573

B1: FBF1 (parent)
chain: YQRPQDSEDMWGDEDFTFGAYQPT

Variants of: B1
Experiment: protein stability index of a GFP-peptide fusion (GPS, HEK-293T) (PSI 1-6); higher = more stable
Details: c terminus: a fixed tail appended
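Also: lentivirally expressed fusions sorted by FACS into six bins by GFP to DsRed ratio, PSI derived from sequencing read proportions per bin multiplied by bin number.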

Row | Variant | protein stability index
1 | YQRPQDSEDMWGDEDFTFRAYQPT [G19R] | 2.47
2 | YQRPQDSEDMWGDEDFTFYAYQPT [G19Y] | 2.35
3 | YQRPQDSEDMWGDEDFTFWAYQPT [G19W] | 1.84
4 | YQRPQDSEDMWGDEDFTFTAYQPT [G19T] | 2.6
5 | YQRPQDSEDMWGDEDFTFSAYQPT [G19S] | 3.18
6 | YQRPQDSEDMWGDEDFTFVAYQPT [G19V] | 2.8
7 | YQRPQDSEDMWGDEDFTFGAYPPT [Q22P] | 3.19
8 | YQRPQDSEDMWGDEDFTFGAYCPT [Q22C] | 2.6
9 | YQRPQDSEDMWGDEDFTFGAYNPT [Q22N] | 2.57
10 | YQRPQDSEDMWGDEDFTFGAYLPT [Q22L] | 2.77
11 | YQRPQDSEDMWGDEDFTFGAYAPT [Q22A] | 2.77
12 | YQRPQDSEDMWGDEDFTFGAYDPT [Q22D] | 3.06
13 | YQRPQDSEDMWGDEDFTFGAYKPT [Q22K] | 1.95
14 | YQRPQDSEDMWGDEDFTFGAYEPT [Q22E] | 3.19
15 | YQRPQDSEDMWGDEDFTFGAYYPT [Q22Y] | 3.22
16 | YQRPQDSEDMWGDEDFTFGAYWPT [Q22W] | 1.94
17 | YQRPQDSEDMWGDEDFTFGAYFPT [Q22F] | 2.38
18 | YQRPQDSEDMWGDEDFTFGAYHPT [Q22H] | 2.43
19 | YQRPQDSEDMWGDEDFTFGAYTPT [Q22T] | 2.28
20 | YQRPQDSEDMWGDEDFTFGAYIPT [Q22I] | 2.45
21 | YQRPQDSEDMWGDEDFTFGAYGPT [Q22G] | 2.86
22 | YQRPQDSEDMWGDEDFTFGAYVPT [Q22V] | 2.37
23 | YQRPQDSEDMWGDEDFTFGAYSPT [Q22S] | 3.03
24 | YQRPQDSEDMWGDEDFTFGAYRPT [Q22R] | 2.65

Row | Variant | protein stability index
25 | YQRPQDSEDMWGDEDFTFGAYMPT [Q22M] | 2.22
26 | YQRPQDSEDMWGDEDFTFGAYQIT [P23I] | 2.64
27 | YQRPQDSEDMWGDEDFTFGAYQWT [P23W] | 2.19
28 | YQRPQDSEDMWGDEDFTFGAYQGT [P23G] | 3.19
29 | YQRPQDSEDMWGDEDFTFGAYQQT [P23Q] | 3.06
30 | YQRPQDSEDMWGDEDFTFGAYQLT [P23L] | 2.87
31 | YQRPQDSEDMWGDEDFTFGAYQAT [P23A] | 2.47
32 | YQRPQDSEDMWGDEDFTFGAYQVT [P23V] | 2.4
33 | YQRPQDSEDMWGDEDFTFGAYQRT [P23R] | 2.67
34 | YQRPQDSEDMWGDEDFTFGAYQHT [P23H] | 3.32
35 | YQRPQDSEDMWGDEDFTFGAYQTT [P23T] | 2.87
36 | YQRPQDSEDMWGDEDFTFGAYQKT [P23K] | 2.68
37 | YQRPQDSEDMWGDEDFTFGAYQNT [P23N] | 3.1
38 | YQRPQDSEDMWGDEDFTFGAYQCT [P23C] | 2.96
39 | YQRPQDSEDMWGDEDFTFGAYQFT [P23F] | 2.74
40 | YQRPQDSEDMWGDEDFTFGAYQMT [P23M] | 2.26
41 | YQRPQDSEDMWGDEDFTFGAYQDT [P23D] | 3.06
42 | YQRPQDSEDMWGDEDFTFGAYQYT [P23Y] | 2.85
43 | YQRPQDSEDMWGDEDFTFGAYQET [P23E] | 3.36
44 | YQRPQDSEDMWGDEDFTFGAYQST [P23S] | 2.61
45 | YQRPQDSEDMWGDEDFTFGQYQPT [A20Q] | 2.97
46 | YQRPQDSEDMWGDEDFTFGLYQPT [A20L] | 2.76
47 | YQRPQDSEDMWGDEDFTFGPYQPT [A20P] | 2.92
48 | YQRPQDSEDMWGDEDFTFGVYQPT [A20V] | 2.72

Row | Variant | protein stability index
49 | YQRPQDSEDMWGDEDFTFGNYQPT [A20N] | 2.9
50 | YQRPQDSEDMWGDEDFTFGIYQPT [A20I] | 2.11
51 | YQRPQDSEDMWGDEDFTFGGYQPT [A20G] | 2.91
52 | YQRPQDSEDMWGDEDFTFGRYQPT [A20R] | 2.18
53 | YQRPQDSEDMWGDEDFTFGCYQPT [A20C] | 2.18
54 | YQRPQDSEDMWGDEDFTFGHYQPT [A20H] | 2.95
55 | YQRPQDSEDMWGDEDFTFGFYQPT [A20F] | 2.38
56 | YQRPQDSEDMWGDEDFTFGYYQPT [A20Y] | 2.79
57 | YQRPQDSEDMWGDEDFTFGSYQPT [A20S] | 2.69
58 | YQRPQDSEDMWGDEDFTFGEYQPT [A20E] | 3.29
59 | YQRPQDSEDMWGDEDFTFGDYQPT [A20D] | 3.02
60 | YQRPQDSEDMWGDEDFTFGWYQPT [A20W] | 2.04
61 | YQRPQDSEDMWGDEDFTFGTYQPT [A20T] | 3.05
62 | YQRPQDSEDMWGDEDFTFGKYQPT [A20K] | 2.94
63 | YQRPQDSEDMWGDEDFTFGMYQPT [A20M] | 2.62
64 | YQRPQDSEDMWGDEDFTFGAYQPE [T24E] | 2.58
65 | YQRPQDSEDMWGDEDFTFGAYQPN [T24N] | 3.02
66 | YQRPQDSEDMWGDEDFTFGAYQPK [T24K] | 3.02
67 | YQRPQDSEDMWGDEDFTFGAYQPD [T24D] | 2.88
68 | YQRPQDSEDMWGDEDFTFGAYQPA [T24A] | 2.79
69 | YQRPQDSEDMWGDEDFTFGAYQPF [T24F] | 2.29
70 | YQRPQDSEDMWGDEDFTFGAYQPM [T24M] | 2.52
71 | YQRPQDSEDMWGDEDFTFGAYQPI [T24I] | 2.24
72 | YQRPQDSEDMWGDEDFTFGAYQPC [T24C] | 2.83

Row | Variant | protein stability index
73 | YQRPQDSEDMWGDEDFTFGAYQPG [T24G] | 3.25
74 | YQRPQDSEDMWGDEDFTFGAYQPH [T24H] | 2.27
75 | YQRPQDSEDMWGDEDFTFGAYQPL [T24L] | 2.23
76 | YQRPQDSEDMWGDEDFTFGAFQPT [Y21F] | 2.98
77 | YQRPQDSEDMWGDEDFTFGAKQPT [Y21K] | 3.44
78 | YQRPQDSEDMWGDEDFTFGAGQPT [Y21G] | 3.46
79 | YQRPQDSEDMWGDEDFTFGAQQPT [Y21Q] | 3.39
80 | YQRPQDSEDMWGDEDFTFGAHQPT [Y21H] | 3.07
81 | YQRPQDSEDMWGDEDFTFGAIQPT [Y21I] | 3.16
82 | YQRPQDSEDMWGDEDFTFGAVQPT [Y21V] | 2.92
83 | YQRPQDSEDMWGDEDFTFGACQPT [Y21C] | 3.17
84 | YQRPQDSEDMWGDEDFTFGADQPT [Y21D] | 3.73
85 | YQRPQDSEDMWGDEDFTFGALQPT [Y21L] | 3.35
86 | YQRPQDSEDMWGDEDFTFGAWQPT [Y21W] | 2.04
87 | YQRPQDSEDMWGDEDFTFGARQPT [Y21R] | 3.06
88 | YQRPQDSEDMWGDEDFTFGANQPT [Y21N] | 3.51
89 | YQRPQDSEDMWGDEDFTFGAMQPT [Y21M] | 2.78
90 | YQRPQDSEDMWGDEDFTFGATQPT [Y21T] | 3.1
91 | YQRPQDSEDMWGDEDFTFGAAQPT [Y21A] | 3.51
92 | YQRPQDSEDMWGDEDFTFGASQPT [Y21S] | 3.51
93 | YQRPQDSEDMWGDEDFTFGAPQPT [Y21P] | 3.56
94 | YQRPQDSEDMWGDEDFTFGAEQPT [Y21E] | 3.75
